In patent US20160333096A1 (published 2016):
Blank lines part the entries; values can stand above or below the binder they belong to.

Experiments:
canine PD-1 antigen [1] = biological target: T1, canine PD-1 antigen (canine); test: SPR (Biacore T200), canine PD-1 amine-coupled to chip, antibody as analyte, 1:1 fit
T1 construct: also called cPD-1; canine Programmed Death Receptor 1
T1 chain: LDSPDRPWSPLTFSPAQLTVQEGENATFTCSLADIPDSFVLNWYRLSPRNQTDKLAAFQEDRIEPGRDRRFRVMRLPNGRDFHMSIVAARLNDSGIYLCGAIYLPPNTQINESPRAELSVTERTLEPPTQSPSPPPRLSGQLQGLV
Excerpt: (§1) Approximately 70 resonance units (RU) of the canine PD-1 antigen was immobilized directly by amine coupling. Affinity measurements were made via label-free surface plasmon resonance based technology (e.g., Biacore® T200) with an association time of 300 seconds, a dissociation time of 1200 seconds, and at concentrations of 50, 100, 200 (×2) 400, and 800 nanomolar (nM). A fitting model of 1:1 binding was used. […] Moreover, the mouse anti-canine PD-1 monoclonal antibody and the corresponding caninized mouse anti-canine PD-1 monoclonal antibody from the same clone yielded strikingly similar Kd values (see Table 5 below).

canine PD-1 antigen [2] = biological target: T1, canine PD-1 antigen; test: SPR (Biacore T200), canine PD-1 amine-coupled to chip, antibody as analyte, 1:1 fit; off-rate below detection limit
Excerpt: as §1

Kd (canine PD-1 antigen [1]): 2 nM
koff (canine PD-1 antigen [1]): 3.4e-05 s⁻¹
kon (canine PD-1 antigen [1]): 18000 M⁻¹ s⁻¹
B1: Murine 3B6 (antibody, V domains shown)
VH: QIQLVQSGPELKKPGETVKISCKASGYTFTTYGMSWVKQAPGKGLKWMGWINIYSGIPTYADDFKGRFAFSLETSASTAYLQIDNLKNEDTATYFCARFDGPDYWGQGTTLTVSS
VL: DIVMTQSPSSLAVSVGRKVTMSCKSSQSLLNSVNQKNYLAWYQQKPGQSPKVLVYFASARVSGVPDRFIGSGSGTDFTLAISSVQAEDLTTYFCQQYFSTPLTFGAGTKLELK
notes: Mouse monoclonal IgG from hybridoma; also called mAb 3B6

kon (canine PD-1 antigen [1]): 23000 M⁻¹ s⁻¹
Kd (canine PD-1 antigen [2]): ≤ 0.2 nM
koff (canine PD-1 antigen [2]): ≤ 5e-06 s⁻¹
B2: Murine 2H9 (antibody, V domains shown)
VH: EVQLQQSVAELVRPGASVKLSCTASGFNIKNTYMHWIKQRPEQGLEWIGRIAPANVDTKYAPKFQGKATITADTSSNTAYMQLSTLTSEDTAIYYCVLIYYDYDGDIDVWGTGTTVTVSS
VL: DIQMNQSPSSLSASLGDTITITCHASQNINVWLSWYQQRPGNIPKLLIYKASHLHTGVPSRFSGSGSGTGFTLTISSLQPEDIATYYCQQGQSWPLTFGAGTKLELK
notes: also called mAb 2H9
